# Earlier results, collected in patent US5763478A, “Triterpene derivatives with immunosuppressant activity” (Merck & Co., Inc., priority 1996, dated 1998).
# Target: T1, KV 1.3 channels (CHO cells transfected with KV 1.3) (Homo sapiens, UniProt P22001)
# T1 construct: expressed in transfected cells; host or cells: CHO cells
# Conditions: reference blocker used at saturating concentration to set the efflux window
# T1 sequence (P22001 53-575 limits assumed): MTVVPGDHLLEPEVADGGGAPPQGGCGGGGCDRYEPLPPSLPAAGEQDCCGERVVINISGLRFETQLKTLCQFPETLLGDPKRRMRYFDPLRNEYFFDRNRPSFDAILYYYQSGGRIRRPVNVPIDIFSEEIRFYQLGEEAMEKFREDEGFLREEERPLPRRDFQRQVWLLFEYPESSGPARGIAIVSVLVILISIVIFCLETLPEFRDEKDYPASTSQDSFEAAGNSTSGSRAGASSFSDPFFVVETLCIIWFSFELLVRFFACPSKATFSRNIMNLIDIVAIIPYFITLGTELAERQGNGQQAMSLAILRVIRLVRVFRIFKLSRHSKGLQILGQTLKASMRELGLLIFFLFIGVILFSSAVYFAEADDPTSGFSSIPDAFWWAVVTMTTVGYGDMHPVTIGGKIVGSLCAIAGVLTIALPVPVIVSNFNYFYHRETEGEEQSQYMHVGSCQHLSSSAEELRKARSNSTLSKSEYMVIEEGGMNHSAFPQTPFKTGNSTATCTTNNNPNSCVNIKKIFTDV
substance,measurement,value
"margatoxin (TIINVKCTSPKQCLPPCKAQFGQSAGAKCMNGKCKCYPH; UniProt P40755 1-39, looked up)",IC50,0.1 nM
